Target: PRC2 (Homo sapiens, UniProt Q15910)
Test: PRC2 histone methyltransferase assay on nucleosomes
Format: biochemical
Details: peptide titration, µM concentrations; fluorography (Fig. 3E, fig. S3, D and E)

PRC2, sequence (Q15910 whole entry): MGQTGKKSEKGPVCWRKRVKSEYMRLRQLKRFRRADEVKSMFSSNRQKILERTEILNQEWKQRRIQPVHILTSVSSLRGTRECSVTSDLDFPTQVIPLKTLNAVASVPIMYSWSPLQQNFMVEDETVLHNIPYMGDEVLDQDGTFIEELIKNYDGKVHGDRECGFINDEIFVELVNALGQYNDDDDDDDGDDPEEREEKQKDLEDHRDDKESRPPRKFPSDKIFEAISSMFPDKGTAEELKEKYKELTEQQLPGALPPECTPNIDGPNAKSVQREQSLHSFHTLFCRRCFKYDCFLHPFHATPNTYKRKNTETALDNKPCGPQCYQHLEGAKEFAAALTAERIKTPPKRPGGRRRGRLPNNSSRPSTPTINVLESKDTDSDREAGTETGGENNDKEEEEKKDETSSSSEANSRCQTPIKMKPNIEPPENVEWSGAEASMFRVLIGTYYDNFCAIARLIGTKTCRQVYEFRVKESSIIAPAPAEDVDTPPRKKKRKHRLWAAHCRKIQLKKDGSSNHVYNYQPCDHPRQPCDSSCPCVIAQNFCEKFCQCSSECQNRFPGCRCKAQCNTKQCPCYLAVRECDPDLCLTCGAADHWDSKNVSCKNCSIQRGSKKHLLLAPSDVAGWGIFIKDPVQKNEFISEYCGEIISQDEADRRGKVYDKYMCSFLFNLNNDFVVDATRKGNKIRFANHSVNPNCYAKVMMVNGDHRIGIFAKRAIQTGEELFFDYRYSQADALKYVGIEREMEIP
PRC2, sequence (O75530 whole entry partner): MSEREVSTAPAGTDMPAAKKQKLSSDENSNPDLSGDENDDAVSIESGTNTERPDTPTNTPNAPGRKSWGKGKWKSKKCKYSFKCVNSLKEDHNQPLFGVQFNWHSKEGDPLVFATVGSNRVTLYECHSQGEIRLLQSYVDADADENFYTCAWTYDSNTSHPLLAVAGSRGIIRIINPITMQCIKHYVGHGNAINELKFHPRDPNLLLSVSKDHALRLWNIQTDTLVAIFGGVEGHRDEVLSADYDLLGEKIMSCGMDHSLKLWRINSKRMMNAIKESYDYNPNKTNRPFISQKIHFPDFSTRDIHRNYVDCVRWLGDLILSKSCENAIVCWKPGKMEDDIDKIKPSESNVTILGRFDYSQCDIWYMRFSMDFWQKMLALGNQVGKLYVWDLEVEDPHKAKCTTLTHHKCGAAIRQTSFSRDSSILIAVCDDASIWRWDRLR
PRC2, sequence (Q6ZN18 whole entry partner): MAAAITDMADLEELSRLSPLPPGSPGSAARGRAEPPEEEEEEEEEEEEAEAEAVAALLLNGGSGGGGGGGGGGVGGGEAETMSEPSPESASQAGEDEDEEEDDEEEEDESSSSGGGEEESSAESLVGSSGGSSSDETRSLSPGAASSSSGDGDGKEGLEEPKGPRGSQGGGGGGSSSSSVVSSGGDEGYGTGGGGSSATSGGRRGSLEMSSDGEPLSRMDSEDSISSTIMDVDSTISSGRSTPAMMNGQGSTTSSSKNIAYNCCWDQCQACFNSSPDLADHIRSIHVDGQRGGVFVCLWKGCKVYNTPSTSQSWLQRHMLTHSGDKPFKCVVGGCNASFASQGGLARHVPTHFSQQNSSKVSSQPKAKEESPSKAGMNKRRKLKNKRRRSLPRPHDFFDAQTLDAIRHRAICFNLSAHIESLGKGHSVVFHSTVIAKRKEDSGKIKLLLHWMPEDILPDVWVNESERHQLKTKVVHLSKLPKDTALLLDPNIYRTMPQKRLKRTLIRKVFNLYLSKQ
PRC2, sequence (Q15022 whole entry partner): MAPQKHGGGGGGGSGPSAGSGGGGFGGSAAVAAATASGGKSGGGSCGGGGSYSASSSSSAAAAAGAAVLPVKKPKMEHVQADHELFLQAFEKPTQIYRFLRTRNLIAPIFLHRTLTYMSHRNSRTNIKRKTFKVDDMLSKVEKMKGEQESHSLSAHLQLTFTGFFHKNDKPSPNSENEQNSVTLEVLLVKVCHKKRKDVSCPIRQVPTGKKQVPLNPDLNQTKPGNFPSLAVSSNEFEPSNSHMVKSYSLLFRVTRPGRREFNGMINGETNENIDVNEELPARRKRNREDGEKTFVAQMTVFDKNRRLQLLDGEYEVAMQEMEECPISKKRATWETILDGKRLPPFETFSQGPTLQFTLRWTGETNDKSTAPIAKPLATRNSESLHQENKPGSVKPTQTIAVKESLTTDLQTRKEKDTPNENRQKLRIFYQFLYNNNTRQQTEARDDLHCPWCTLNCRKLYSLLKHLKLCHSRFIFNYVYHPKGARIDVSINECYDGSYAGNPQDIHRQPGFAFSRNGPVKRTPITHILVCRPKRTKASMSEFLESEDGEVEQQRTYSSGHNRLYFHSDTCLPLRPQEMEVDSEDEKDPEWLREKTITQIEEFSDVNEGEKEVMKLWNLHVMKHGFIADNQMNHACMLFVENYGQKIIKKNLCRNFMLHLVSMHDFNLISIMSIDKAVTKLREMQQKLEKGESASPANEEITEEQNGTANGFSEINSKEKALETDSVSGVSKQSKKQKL
PRC2, sequence (Q09028 whole entry partner): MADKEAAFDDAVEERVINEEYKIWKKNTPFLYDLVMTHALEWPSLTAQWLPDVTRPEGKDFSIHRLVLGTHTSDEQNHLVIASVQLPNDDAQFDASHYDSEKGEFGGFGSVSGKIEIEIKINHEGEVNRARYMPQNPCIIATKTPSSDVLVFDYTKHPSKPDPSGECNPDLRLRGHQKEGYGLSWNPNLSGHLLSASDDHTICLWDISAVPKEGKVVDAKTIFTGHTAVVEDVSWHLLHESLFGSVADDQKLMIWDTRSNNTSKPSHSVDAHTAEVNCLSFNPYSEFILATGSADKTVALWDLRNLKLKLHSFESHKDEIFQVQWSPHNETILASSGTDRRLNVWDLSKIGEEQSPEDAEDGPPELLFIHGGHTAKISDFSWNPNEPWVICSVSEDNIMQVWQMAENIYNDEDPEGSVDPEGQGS

K27ac: H3 peptide (18 to 37) containing K27acetyl
dose-dependent inhibition of PRC2 methyltransferase activity: not the K27ac peptide, could inhibit PRC2-dependent methyltransferase activity in a dose-dependent manner

Source: publication PMC3951439 (Science (New York, N.Y.), 2013)
